{
  "source": "paper PMC8752837",
  "about": "“Structural basis of BAK activation in mitochondrial apoptosis initiation” (Nature Communications, 2022)",
  "molecules": {"B1": {"name": "V74A (1): BAK missense mutant, WT-like; in cells as mCherry fusion (protein)", "chain": "MASGQGPGPPRQECGEPALPSASEEQVAQDTEEVFRSYVFYRHQQEQEAEGVAAPADPEMVTLPLQPSSTMGQAGRQLAIIGDDINRRYDSEFQTMLQHLQPTAENAYEYFTKIATSLFESGINWGRVVALLGFGYRLALHVYQHGLTGFLGQVTRFVVDFMLHHCIARWIAQRGGWVAALNLGNG", "modifications": "left off: His6, C-terminal, kept", "notes": "BAK missense mutant, WT-like; in cells as mCherry fusion"}},
  "tested_on": "BCL2allKO HCT116 cells reconstituted with Dox-inducible mC-BAK",
  "experiment": "Dox-induced cell death by IncuCyte imaging of SYTOX Green uptake (autoactivation)",
  "format": "cell-based, human",
  "settings": "for SYTOX Green +ve counts/confluence AUC of kinetic traces: Fig 3d; for AUC (48 hr) of SYTOX Green counts/confluence: mC-BAK BCL2allKO HCT116 + Dox + qVD, average, N = 3",
  "text": "For mammalian cell culture experiments, we cloned the full length human BAK cDNA into pCR 2.1 TOPO vector, mutated BAK as needed, and PCR amplified the BAK gene for cloning into the BamHI and NotI sites of pRETROX mCherry vector for retroviral transduction. Amplification and mutagenesis primers are included in Supplementary Table 4. To test direct BAK activation and BAK autoactivation in cells, we produced cells stably expressing mCherry-human BAK (mC-BAK) ± human BID (BID) on a genetic background devoid of the entire BCL-2 family repertoire (all 17 BCL-2 genes), BCL2allKO HCT116, as described by the Xu Luo laboratory. We expressed WT and mutant mC-BAK using the doxycycline (Dox)-based inducible Tet-On 3G retroviral system from the pRetroX-TRE3G-Puro^R in BCL2allKO HCT116 cells expressing the Tet3G from pRetroX-Tet3G-Blast^R. We selected cells with puromycin (2.5 µg/mL) and blasticidin (2 µg/mL) starting at 2 days after retroviral transduction. To enrich for populations of cells that express mC-BAK, we treated cells with low Dox dose (25 ng/mL) and fluorescence-activated cell sorted (FACS) the mCherry positive cells. We performed the enrichment twice before cell death analysis. One caveat of our cellular system is tagging BAK with N-terminal mCherry, which may affect folding efficiency, degradation, and BAK interactome.\nWe seeded cells in 24-well (100,000 cells/well), 96-well (15,000 cells/well), or 384-well (10,000 cells/well) plates coated with 10 µg/mL fibronectin. After ≥24 h of attachment and recovery, we induced cell death with Dox (up to 1000 ng/mL) and monitored SYTOX Green (25 nM) uptake by Incucyte imaging. This dye marks cells with compromised plasma membrane integrity. mC-BAK expressed before 24 h, which coincided with detectable cell death. We monitored Incucyte imaging for up to 48 h, followed by endpoint FACS analysis to measure the extent of cell death based on SYTOX Green positive cells on FACSCalibur systems (BD Biosciences). As expected, cells with low mCherry fluorescence were refractory to cell death.",
  "data": [
    {"molecule": "B1", "values": [
      {"measurement": "SYTOX Green +ve counts/confluence AUC of kinetic traces", "setting": "Dox 6.25 ng/mL", "value": 290.31},
      {"measurement": "SYTOX Green +ve counts/confluence AUC of kinetic traces", "setting": "Dox 6.25 ng/mL + qVD", "value": 201.143},
      {"measurement": "SYTOX Green +ve counts/confluence AUC of kinetic traces", "setting": "Dox 12.5 ng/mL", "value": 574.561},
      {"measurement": "SYTOX Green +ve counts/confluence AUC of kinetic traces", "setting": "Dox 12.5 ng/mL + qVD", "value": 218.508},
      {"measurement": "SYTOX Green +ve counts/confluence AUC of kinetic traces", "setting": "Dox 25 ng/mL", "value": 828.325},
      {"measurement": "SYTOX Green +ve counts/confluence AUC of kinetic traces", "setting": "Dox 25 ng/mL + qVD", "value": 220.818},
      {"measurement": "SYTOX Green +ve counts/confluence AUC of kinetic traces", "setting": "Dox 50 ng/mL", "value": 1653.15},
      {"measurement": "SYTOX Green +ve counts/confluence AUC of kinetic traces", "setting": "Dox 50 ng/mL + qVD", "value": 333.116},
      {"measurement": "SYTOX Green +ve counts/confluence AUC of kinetic traces", "setting": "Dox 100 ng/mL", "value": 2313.65},
      {"measurement": "SYTOX Green +ve counts/confluence AUC of kinetic traces", "setting": "Dox 100 ng/mL + qVD", "value": 342.619},
      {"measurement": "SYTOX Green +ve counts/confluence AUC of kinetic traces", "setting": "Dox 500 ng/mL", "value": 2761.33},
      {"measurement": "SYTOX Green +ve counts/confluence AUC of kinetic traces", "setting": "Dox 500 ng/mL + qVD", "value": 584.364},
      {"measurement": "SYTOX Green +ve counts/confluence AUC of kinetic traces", "setting": "Dox 1000 ng/mL", "value": 2775.53},
      {"measurement": "SYTOX Green +ve counts/confluence AUC of kinetic traces", "setting": "Dox 1000 ng/mL + qVD", "value": 699.139},
      {"measurement": "Dox-induced cell death", "setting": "IncuCyte SYTOX Green up to 48 h", "value": "induces cell death faster than I81A(3) or D83A(s) irrespective of Dox dose"},
      {"measurement": "AUC (48 hr) of SYTOX Green counts/confluence", "setting": "Dox 100 ng/mL", "value": 79832.2},
      {"measurement": "AUC (48 hr) of SYTOX Green counts/confluence", "setting": "Dox 1000 ng/mL", "value": 98530.5}
    ]}
  ]
}
